This is an account of results in patent US20240083986A1.

To fix the notation:
B1: H4H16946P (antibody, human IgG4, V domains shown)
VH: EVQLVESGGGLVQPGGSLRLSCVASGFTFSNYDMNWVRQAPGEGLEWISYISYSDHNIYYIDSVKGRFTISRDNAKNSLYLQMNSLRAEDTAIYYCAREALASSSFDYWGQGTLVTVSS
VL: EIVMTQSPATLSVSPGERVTLSCRASQSVSGNLAWYQQKPGQAPRLLIYSASTGATGVPARFSGSGSGTEFTLTISSLQSEDFALYYCQQYNKWPRTIGQGTKVEIK
B2: H4H17001P (antibody, human IgG4, V domains shown)
VH: QVQLVESGGGLVKPGGSLRLSCAASGFTFSDYYMNWIRQAPGKGLEWISLISSSGSAIYYSDSVKGRFTISRDNARKSLYLQVNSLRAEDTAVYYCARDRGEWALGAYYYGLDVWGQGTTVTVSS
VL: DIVMTQSPLSLPVTPGEPASISCRSSQSLLHSDGYNYLDWYLQKSGQSPQLLIYLGSNRASGVPDRFSGSGSGTDFTLKISRMEAEDVGVYYCMQALQTPYTFGQGTKLEIK
B3: H4H17027P (antibody, human IgG4, V domains shown)
VH: EVQLVESGGGLVQPGGSLRLSCAASGFTFRNYAMHWVRQAPGEGLEWVAAIYRNSDSIDYADSVKGRFTISRDNAKNSLYLQMNSLKTEDTALYYCAKDEGFLEYFDSWGQGTLVTVSS
VL: EIVLTQSPGTLSLSPGERASLSCRASQSVSSSFLAWYQQKPGQAPRLLIYGVSSRFIGIPDRFSGGGSGTDFTLTITRLEPEDFAVYYCQQYGRSPWTFGQGTKVEIK
B4: H4H17033P (antibody, human IgG4, V domains shown)
VH: QVQLVQSGAEVKKPGASVKVSCKASGYTFAAHYMHWVRQAPGQGLEWMGWINTYTGGTNYGQKFQGRVTMTRDTSITTAYMELSRLRSDDTAVYYCARDRRNWNFVFEYWGQGTLVTVSS
VL: DIQMTQSPSSLSASVGDRVTISCRASQNIKNYLNWYQQKPGKAPKLLIYEASNLQSGAPSRFSGSGSGTDFTLTISSLEPEDFATYYCQQSFSIPWTFGQGTKVEIK
B5: H4H17028P (antibody, human IgG4, V domains shown)
VH: QVQLVESGGGVVQPGRSLRLSCAASGFTFSRYAIHWVRQAPGKGLEWVAVISYDGDDKYYGDSVKGRFTISRDNSKTMVYLHMNSLRTEDTAVYYCAKDGYSLYGKDYFDYWGQGTLVTVSS
VL: EIVLTQSPGTLPLSPGERATLSCRASQSITNSYLAWYQQKPDQAPRLLIYGASSRATGIPDRFSGSESGTDFTLTISRLEPEDFAVYYCQQYVRSPWTFGQGTKVEIK
B6: H4H16960P (antibody, human IgG4, V domains shown)
VH: QLQLQESGPGLVRPSETLSLTCTVSGGSISSSNYWWGWIRQPPGKGLEWIGSIYYSGITYYNPSLKSRVTISADTSKDQFSLKLRSVTAADTAVYYCAKLEWLRLDFWGQGTTVTVSS
VL: DIQMTQSPSSVSASVGDRVTITCRASQGISSWLVWYQQKPGKVPKLLIYAASSLQSGVPLRFSGSGSGTDFTLTISSLQPEDFATYYCQQAKSFPLTFGQGTRLEIK
B7: H4H16950P (antibody, human IgG4, V domains shown)
VH: QVQLVQSGAEVKKPGASVKVSCKTSGYTFTNYGITWVRQAPGQGLEWMGWISAYNGNTNYAQNVQGRVTMTTDTSTSTAYMEVRSLRSDDTAVYYCARRSSMLHFQHWGQGTLVTVSS
VL: DIVMTQSPDSLAVSLGERATINCKSSQHVLYDSSNENYLAWFQQKPGQPPKLLIYWASTRESGVPDRFSGSGSGTDFTLTISSLQAEDVAVYYCQQYSSAPYTFGQGTKLEIK
B8: H4H16987P (antibody, human IgG4 S228P, kappa, V domains shown)
VH: EVQLVESGGGLVQPGGSLRLSCAASGFTVSSNSMSWVRQAPGEGLEWVSVIFSGGITYYSDSVKGRFTISRHNSKNTLYLQMNSLRTEDTAVYYCARHSNWNFDAFDIWGQGTMVTVSS
VL: DIQMTQSPSSLSASVGDRVTITCRASQSFDTYLNWYQQKPGKAPNLLIYATSSLQSGVPSRFSGSGSGTDFTLTISSLQPEDFGTYYCQQSYSIPYTFGQGTKLEIKR
B9: H4H17015P (antibody, human IgG4, V domains shown)
VH: QVQLQESGPGLVKPSQTLSLTCTVSGGSISSADHYWSWIRQQPGKGLEWIGYISYRGTTYYNPTLESRVSISVDTFKNQFSLMLHSVTVADTAVYYCAKVLQGLVRFRDYGFDVWGQGTTVTVSS
VL: DIQLTQSPPFLSASVGDRVTITCWASQDISSYLAWYQQNPGKSPKLLIYDAFTLHTGVPSRFSGSGSGTEFTLTISSLQPEDFATFYCQHLYSFPFTFGPGTKVDIK
B10: H4H16991P (antibody, human IgG4, V domains shown)
VH: QVQLVQSGAEVRKPGASVKVSCKASGYTFTGYYLHWVRQAPGQGLEWMGLINPNTGGTNFAQKFQGRVTMTRDSSISAAYMELSRLRSDDTAVYYCARQHWNRYFDNWGQGTLVTVSS
VL: DIQMTQSPSTLSASVGDRVTITCRASQSVGNWLAWYQQKPGKAPKLLIQEASSIESGVPSRFSGSGSGTEFTLIVSSLQPDDFATYYCQQYNSYSWTFGHGTKVEIK
B11: H4H17031P (antibody, human IgG4, V domains shown)
VH: QVQLQQWGAGLLKPSETLSLTCVVYGESFGNYHWNWIRQSPGKRLEWIGEINQNGHTNYNPSLKSRVTISVDTSKIQFSLRLNSVTAADTAVYFCARGHNYVNSYFGLDVWGQGTTVTVSS
VL: EIVMTQSPATLSVSPGERATLSCRTSQSVSISLAWYQRKPGQAPRLLIFGSSTRATGVPARFSGSGSGTEFTLTISSLQSEDFAVYYCQQYNNWPYTFGQGTKLEIK

The assay addresses Hazel (Cor A 1, MyBiosource, Cat #MBS5304600) (Hazel) (UniProt Q08407). Description: SPR, mAb captured via anti-hFc, 25 C. For orientation: In SPR one partner is held on a chip, and binding of the other changes the refractive index at the surface.
In turn, B1 yielded a 100 nM Analyte Bound (RU) of -1 RU.
Molecule B2 returned a 100 nM Analyte Bound (RU) of 0 RU.
B3 yielded a 100 nM Analyte Bound (RU) of 0 RU.
With B4, the 100 nM Analyte Bound (RU) is 0 RU.
In the case of B5 it was 0 RU.
B6 returned a 100 nM Analyte Bound (RU) of 0 RU.
In turn, B7 returned a 100 nM Analyte Bound (RU) of 0 RU.
B8 came in with a 100 nM Analyte Bound (RU) of 0 RU.
B9 showed a 100 nM Analyte Bound (RU) of 1 RU.
As to B10, the 100 nM Analyte Bound (RU) turned out to be 0 RU.
As for B11, the figure is 0 RU.
